Results from patent publication US20250295798A1 (BEIGENE SWITZERLAND, published 2025).
One block for each binder: values may come before it.

Assays:
hHER3-his = target: T1, hHER3-his (human, UniProt P21860 20-643); test: SPR (BIAcore 8K), mAb captured by anti-human Fc, Her3-his as analyte, 1:1 Langmuir fit, 25 C
T1 construct: Bought reagent; also called Her3-his (cat10201-H08H, SinoBiological); not shown: his tag
Method: Binding kinetics of the mAbs to the target was determined by SPR on a BIAcore 8K (GE Healthcare). The running buffer, 10 mM HEPES, 150 mM NaCl, 0.05% v/v Surfactant P20, 3 mM EDTA, pH 7.4 (HBS-EP+, GE Healthcare) was used for immobilization and reagent dilutions. All binding kinetics were measured at 25° C. For each injection cycle, mAbs were first captured in different flow cells with an anti-human Fc antibody (Human Antibody Capture Kit, GE Healthcare) immobilized to the sensor chip (Series S CM5, GE Healthcare). Reference flow cell with no captured mAb was also used. Serial dilutions of Her3-his(cat10201-H08H, SinoBiological), and buffer blanks were injected in multiple cycles over the captured mAbs and reference surfaces for association followed by dissociation. The surfaces were regenerated with an injection of 3 M MgCl2 after each cycle. Double-referenced titration data was globally fit to a 1:1 Langmuir binding model to determine the association rate constant, ka (M−1 s−1), and the dissociation rate constant, kd (s−1), using the BIAcore Insight Evaluation Software version 2.0 (GE Healthcare). The equilibrium dissociation constant was calculated as KD(M)=kd/ka.

[1] = target: T2, human HER3 (native, on A375 cells) (human, UniProt P21860 20-1342); test: flow cytometry (FACS) on A375 cells, anti-human IgG Alexa Fluor 647 detection, 4-parameter fit
T2 construct: whole, on cells; also called native Her3; human native Her3
Method: Cell fluorescence was quantified using a flow cytometer (Guava easyCyte 8HT, Merck-Millipore, USA). EC50 values for dose-dependent binding to human native Her3 were determined by fitting the dose-response data to the four-parameter logistic model with GraphPad Prism.

Kd (hHER3-his): 2.52 nM | EC50 [1]: 0.83 nM
B1: mAb10 (antibody, V domains shown)
VH: EVQLLESGGGLVQPGGSLRLSCAVSGGSFSGYYWSWIRQAPGKGLEWIGEINHSGSTNYNPSLKSRFTISVDNSKNTFYLQMNSLRAEDTAVYYCARDKWTWYFDLWGRGTLVTVSS
VL: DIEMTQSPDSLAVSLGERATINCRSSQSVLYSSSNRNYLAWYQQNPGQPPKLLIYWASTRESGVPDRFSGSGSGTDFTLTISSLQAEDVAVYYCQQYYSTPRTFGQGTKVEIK
notes: Produced from heavy chain and kappa chain plasmids in CHO cells

Kd (hHER3-his): 1.51 nM | EC50 [1]: 0.59 nM
B2: Patritumab (antibody, V domains shown)
VH: QVQLQQWGAGLLKPSETLSLTCAVYGGSFSGYYWSWIRQPPGKGLEWIGEINHSGSTNYNPSLKSRVTISVETSKNQFSLKLSSVTAADTAVYYCARDKWTWYFDLWGRGTLVTVSS
VL: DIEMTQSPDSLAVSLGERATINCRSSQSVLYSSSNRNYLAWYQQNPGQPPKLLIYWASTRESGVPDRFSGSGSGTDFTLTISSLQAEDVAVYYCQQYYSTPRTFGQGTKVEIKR
